Data on two molecules can be found in patent US8796201B2 (The Board of Trustees of the Leland Stanford Junior …, priority 2002, dated 2014).

Usually Km stands for the concentration of substrate that gives half-maximal velocity.

Data set [1] deals with pepsin. The experiment in a line: Gastric protease stability. The class given is in vitro ADME. The conditions noted are these: 1 mg/ml pepsin, pH 2. How it is done: FIG. 9. Resistance of the FM PEP and the MX PEP to inactivation by gastric and pancreatic enzymes. Pancreatic enzyme stability was evaluated by treating 5 U/ml of the FM PEP and the MX PEP with 1 mg/ml trypsin, 1 mg/ml chymotrypsin, 0.2 mg/ml elastase and 0.2 mg/ml carboxypeptidase A (40 mM phosphate, pH=6.5). Pepsin stability was tested by treating the FM PEP and the MX PEP (5 U/ml) with 1 mg/ml pepsin (pH=2, 20 mM HCl).
Gastric and Pancreatic Protease Stability. […] Absorption was measured at 410 nm for 1 to 2 min every 10 s to assay residual activity. […] Enzyme activities are expressed as a percentage of the maximum activity, typically observed at the zero time point.
PEP Stability. […] We therefore evaluated the extent to which the activity of each PEP remains intact after 10 min of incubation at selected pH values between 1.6 and 3.9. […] Since therapeutic efficacy would require a PEP to act upon gluten in conjunction with pancreatic proteases that are secreted into the duodenum, the resistance of FM PEP and MX PEP toward both gastric and pancreatic enzymes was evaluated. For this we pre-incubated the enzymes with physiological quantities of either pepsin (at pH 2) or a cocktail comprising of trypsin, chymotrypsin, elastase and carboxypeptidase A (at pH 6.5).

For data set [2], the system named is PQPQLPYPQPQLP and LQLQPFPQPQLPYPQPQLPYPQPQLPYPQPQPF
The experiment in a line: Competitive proteolysis of 13-mer and 33-mer by each PEP. It is filed as biochemical, wheat. The conditions noted are these: 50 μM PQPQLPYPQPQLP, 10 μM 33-mer, 0.1 μM PEP. How it is done: FIGS. 12A-12C. […] 10 μM of the longer peptide and 50 μM of the shorter peptide were co-incubated with 0.1 μM of (A) FM PEP; (B) MX PEP; (C) SC PEP.
To examine the chain length specificity of individual PEPs, we performed competitive reactions containing both gluten-derived peptides, subjected the reaction mixture to RP-HPLC, and monitored the disappearance of each substrate was monitored as a function of time.

Data set [3] can be described thus: pH stability (activity retained after acid exposure). As to conditions: after 10 min of incubation at pH values between 1.6 and 3.9. The class given is in vitro ADME. How it is done:
pH Stability. The ability to retain enzyme activity after exposure to acidic environments was determined. […] The recovered enzyme activity was measured spectrophotometrically and compared with non-acid treated controls under identical conditions. PEP Stability. Although orally administered therapeutic proteins can be formulated to protect them from the acidic and proteolytic environment of the stomach, intrinsic acid stability of a PEP is likely to be a desirable characteristic in its use as a therapeutic agent for Celiac Sprue. […] Thus, although all PEPs appear to be moderately acid-stable, the MX PEP is most versatile. Since therapeutic efficacy would require a PEP to act upon gluten in conjunction with pancreatic proteases that are secreted into the duodenum, the resistance of FM PEP and MX PEP toward both gastric and pancreatic enzymes was evaluated. For this we pre-incubated the enzymes with physiological quantities of either pepsin (at pH 2) or a cocktail comprising of trypsin, chymotrypsin, elastase and carboxypeptidase A (at pH 6.5).

Data set [4] in a line: Kinetic analysis with reference substrate Succinyl-Ala-Pro-pNA. The conditions noted are these: Succinyl-Ala-Pro-p-nitroanilide hydrolysis. It is filed as biochemical. How it is done: Activity Assays. Post-proline cleavage activity was measured using Z-Gly-Pro-p-nitroanilide and Succinyl-Ala-Pro-p-nitroanilide (Bachem, CA). Z-Gly-Pro-pNA was dissolved in a PBS:water:dioxane (8:1.2:0.8) assay mixture. The concentration of Z-Gly-Pro-pNA was varied from 100-600 μM. Although the substrate Z-Gly-Pro-pNA was effective in detecting enzyme activity, its insolubility at higher concentrations precluded kinetic measurements under substrate-saturated conditions. In contrast, Succinyl-Ala-Pro-pNA, had the advantage of high water solubility at all pH values tested, and was therefore a preferred substrate for kinetic studies. […] Reaction mixtures ([…] consisted of 30 μl of 10× pH buffer, final concentration of 0.01 μM enzyme, and Suc-Ala-Pro-pNA to final concentrations between 100 μM to 4 mM.
Kinetic Analysis with Reference Substrates. The activity of each PEP was initially evaluated using the standard chromogenic substrate succinyl-Ala-Pro-pNA. Release of the p-nitroaniline was detected at 410 nm, and kinetic data was fitted to the Michaelis-Menten relationship. Succinyl-Ala-Pro-pNA was selected as a reference substrate instead of the more commonly used Z-Gly-Pro-pNA due to the low solubility of the latter substrate, which necessitated use of co-solvents. The calculated kcat and KM values of FM, MX and SC PEPs for succinyl-Ala-Pro-pNA are tabulated (Table 3). […] The higher specificity of MX can be attributed mainly to its higher affinity for the substrate, as reflected in the KM.

B1: FM PEP: recombinant prolyl endopeptidase from Flavobacterium meningosepticum (Genbank D10980) (protein)
chain: QNSNVLKYPETKKVSHTDTYFGTQVSDPYRWLEDDRAEDTKAWVQQEVKFTQDYLAQIPFRDQLKKQLMDIWNYEKISAPFKKGKYTYFSKNDGLQAQSVLYRKDAAGKTEVFLDPNKFSEKGTTSLASVSFNKKGTLVAYSISEGGSDWNKIIILDAETKKQLDETLLDVKFSGISWLGDEGFFYSSYDKPKEGSVLSGMTDKHKVYFHKLGTKQSQDELIIGGDKFPRRYIGAYVTDDQRYLVVSAANATNGNELYIKDLKNKTDFIPIITGFDSNVNVADTDGDTLYLFTDKDAPNKRLVKTTIQNPKAETWKDVIAETSEPLEINTGGGYFFATYMKDAIDQVKQYDKNGKLVRAIKLPGSGNASGFGGEKTEKDLYYSFTNYITPPTIFKYNVTTGNSEVYQKPKVKFNPENYVSEQVFYTSSDGTKIPMMISYKKGLKKDGKNPTILYSYGGFNISLQPAFSVVNAIWMENGGIYAVPNIRGGGEYGKKWHDAGTKMQKKNVFNDFIAAGEYLQKNGYTSKEYMALSGRSNGGLLVGATMTMRPDLAKVAFPGVGVLDMLRYNKFTAGAGWAYDYGTAEDSKEMFEYLKSYSPVHNVKAGTCYPSTMVITSDHDDRVVPAHSFKFGSELQAKQSCKNPILIRIETNAGHGAGRSTEQVVAENADLLSFALYEMGIKSLK
On to B1, for which the resistance to pepsin entry in data set [1] is on record as “highly susceptible to pepsin catalyzed proteolysis”. Further, in data set [2], the “chain length selectivity, 13-mer vs 33-mer” value is on record as “comparable selectivity for both peptides”. Besides, in data set [3], the original activity retained is listed as 50-70%. Also, in data set [4], the Kcat worked out at 33 s⁻¹ and the Km stood at 910 µM.

B2: MX PEP: novel recombinant prolyl endopeptidase from Myxococcus xanthus (Genbank AF127082, SEQ ID NO:47) (protein, listed as Myxococcus xanthus)
chain: MSYPATRAEQVVDTLHGVQVADPYRWLEDEKAPEVQTWMTAQNAHAREALAKFPGREALAARFKELFYTDSVSTPSRRNGRFFYVRTHKDKEKAILYWRQGESGQEKVLLDPNGWSKDGTVSLGTWAVSWDGKKVAFAQKPNAADEAVLHVIDVDSGEWSKVDVIEGGKYATPKWTPDSKGFYYEWLPTDPSIKVDERPGYTTIRYHTLGTEPSKDTVVHERTGDPTTFLQSDLSRDGKYLFVYILRGWSENDVYWKRPGEKDFRLLVKGVGAKYEVHAWKDRFYVLTDEGAPRQRVFEVDPAKPARASWKEIVPEDSSASLLSVSIVGGHLSLEYLKDATSEVRVATLKGKPVRTVQLPGVGAASNLMGLEDLDDAYYVFTSFTTPRQIYKTSVSTGKSELWAKVDVPMNPEQYQVEQVFYASKDGTKVPMFVVHRKDLKRDGNAPTLLYGYGGFNVNMEANFRSSILPWLDAGGVYAVANLRGGGEYGKAWHDAGRLDKKQNVFDDFHAAAEYLVQQKYTQPKRLAIYGGSNGGLLVGAAMTQRPELYGAVVCAVPLLDMVRYHLFGSGRTWIPEYGTAEKPEDFKTLHAYSPYHHVRPDVRYPALLMMAADHDDRVDPMHARKFVAAVQNSPGNPATALLRIEANAGHGGADQVAKAIESSVDLYSFLFQVLDVQGAQGGVAAQGR
With B2, the resistance to pepsin result in data set [1] is “highly susceptible to pepsin catalyzed proteolysis”. The “chain length selectivity, 13-mer vs 33-mer” value in data set [2] is “clear preference for the 13-mer peptide”. For the same molecule, in data set [3], the original activity retained is given as 70-90%. Moreover, in data set [4], the Kcat amounted to 51 s⁻¹ and the Km came out at 350 µM.
